From PMC12670994 come the findings set out here.

Where “and” joins values, the source holds several entries; their conditions need not be identical. Equal entries are not always repeated.

In data set [1] the target is SARS-CoV-2 spike on Omicron pseudovirus (GFP-expressing) (SARS-CoV-2 Omicron) (UniProt P0DTC2). Briefly: flow cytometry, bead-bound aptamer. On the technique in general: Flow cytometry measures light scatter and fluorescence of single cells or particles in a stream.
Data set [2] shares this target. In words: flow cytometry, bead-bound aptamer. Particulars: 5' hexynyl-iSp18-iSp18-iSp18 (PEG spacer).

What is called Kd is the free concentration of one partner at which half of the binding sites on the other are occupied at equilibrium, for simple one-to-one binding. A low value points to a tighter complex. The sequence “TTTTTATCCAGAGTGACGCAGCACCGACCTTGTGCTTTGGGAGTGCTGGTCCAAGGGCGTTAATGGACACGGTGGCTTAGT [Omicron Particle Aptamer]” had a Kd in data set [1] (5' hexynyl) of 0.01 pM. For the sequence “ATCCAGAGTGACGCAGCACCGACCTTGTGCTTTGGGAGTGCTGGTCCAAGGGCGTTAATGGACACGGTGGCTTAGT [Omicron PEG36 Particle Aptamer]”, the dissociation constant Kd in data set [2] was 0.011 pM and 0.017 pM and 0.073 pM; in data set [1] (5' hexynyl-iSp18-iSp18-iSp18 (PEG spacer)), 0.007 pM.
